Assay results as given in patent US20260144882A1 (BIO THERA SOLUTIONS, published 2026).
Where a chain is given by its changes, count along the chain named.

B1: 1G8-1A3 scFv (scFv, V domains shown)
VH: EVQLVESGGGLVQPGGSLRLSCAASGYNFGSYAMSWVRQAPGKGLEWVSRIYPGSWSPDYADSVKGRFTISRDNSKNTLYLQMNSLRAEDTAVYYCARQTEDRSYGYDLDYWGQGTLVTVSS
VL: DIQMTQSPSSLSASVGDRVTITCRASQGISSYLAWYQQKPGKAPKLLIYAASSLQSGVPSRFSGSGSGTDFTLTISSLQPEDFATYYCQQHYTTPPTFGQGTKVEIKR
notes: phage clone supernatant
B2: 1G8-1A7 scFv (scFv, V domains shown)
VH: B1 VH with N28T, G30D, Y52K, P53T, G54T, S55D, W56D, S57G, P58K, D59S
VL: B1 VL
notes: phage clone supernatant
B3: 1G8-1G5 scFv (scFv, V domains shown)
VH: B1 VH with G30T, S31T, Y32S, P53A, G54D, S55T, W56A, S57Y, P58N
VL: B1 VL
notes: phage clone supernatant
B4: 1G8-1E8 scFv (scFv, V domains shown)
VH: B1 VH with Y27F, N28T, G30D, S31G, Y52S, P53S, G54Y, S57N
VL: B1 VL
notes: phage clone supernatant
B5: 1G8-1E6 scFv (scFv, V domains shown)
VH: B1 VH with N28I, G30T, S31D, A33S, P53T, G54D, S55G, S57E, P58K
VL: B1 VL
notes: phage clone supernatant
B6: 1G8-1F11 scFv (scFv, V domains shown)
VH: B1 VH with Y27D, N28T, G30S, Y52S, P53Q, G54T, S55G, W56G, S57T, P58T
VL: B1 VL
notes: phage clone supernatant
B7: 1G8-1E12 scFv (scFv, V domains shown)
VH: B1 VH with Y27F, G30T, Y52S, P53A, G54H, S55K, S57D, P58A, D59S
VL: B1 VL
notes: phage clone supernatant
B8: 1G8-1F7 scFv (scFv, V domains shown)
VH: EVQLVESGGGLVQPGGSLRLSCAASGYSFYGYAMSWVRQAPGKGLEWVSAIDAIGGNKRYADSVKGRFTISRDNSKNTLYLQMNSLRAEDTAVYYCARQTEDRSYGYDLDYWGQGTLVTVSS
VL: B1 VL
notes: phage clone supernatant
B9: 1G8-1D11 scFv (scFv, V domains shown)
VH: B8 VH with Y27D, S28I, Y30T, A50R, A53G, I54T, G56D, N57S, R59F
VL: B1 VL
notes: phage clone supernatant
B10: 1G8-1G9 scFv (scFv, V domains shown)
VH: B1 VH with Y27F, S31D, Y32F, P53S, S55D, W56D, S57N, P58A, D59S
VL: B1 VL
notes: phage clone supernatant
B11: 1G8-1E10 scFv (scFv, V domains shown)
VH: B8 VH with Y27D, Y30S, G31T, A50R, D52S, A53G, I54S, G56D, N57G, R59D
VL: B1 VL
notes: phage clone supernatant
B12: 1G8-1A12 scFv (scFv, V domains shown)
VH: B8 VH with Y27G, S28T, Y30D, G31T, Y32N, D52S, A53T, I54G, G56D
VL: B1 VL
notes: phage clone supernatant
B13: 1G8-1B7 scFv (scFv, V domains shown)
VH: B8 VH with Y30S, G31N, A50R, D52S, I54W, G56S, N57T, K58N, R59N
VL: B1 VL
notes: phage clone supernatant
B14: 1G8-1H6 scFv (scFv, V domains shown)
VH: B1 VH with Y27F, G30S, S31G, Y32F, G54T, W56S, S57E, P58S
VL: B1 VL
notes: phage clone supernatant
B15: 1G8-2A7 scFv (scFv, V domains shown)
VH: B8 VH with Y30S, G31D, A50R, D52S, I54Y, G56W, N57G, R59S
VL: B1 VL
notes: phage clone supernatant
B16: 1G8-1D7 scFv (scFv, V domains shown)
VH: EVQLVESGGGLVQPGGSLRLSCAASGGSFSNYAMSWVRQAPGKGLEWVSWIDTTSAYASYADSVKGRFTISRDNSKNTLYLQMNSLRAEDTAVYYCARQTEDRSYGYDLDYWGQGTLVTVSS
VL: B1 VL
notes: phage clone supernatant
B17: 1G8-2A11 scFv (scFv, V domains shown)
VH: EVQLVESGGGLVQPGGSLRLSCAASGDSFYNYSMSWVRQAPGKGLEWVSRISSDGWETFYADSVKGRFTISRDNSKNTLYLQMNSLRAEDTAVYYCARQTEDRSYGYDLDYWGQGTLVTVSS
VL: B1 VL
notes: phage clone supernatant
B18: 1G8-1G12 scFv (scFv, V domains shown)
VH: B1 VH with G30T, Y32S, P53S, G54I, W56G, S57N, P58T
VL: B1 VL
notes: phage clone supernatant
B19: 1G8-1B11 scFv (scFv, V domains shown)
VH: B8 VH with S28N, Y30S, G31N, I54S, N57D, K58T
VL: B1 VL
notes: phage clone supernatant
B20: 1G8-1H1 scFv (scFv, V domains shown)
VH: B1 VH with Y27D, N28T, G30S, S31G, G54Y, W56S, S57V, P58R
VL: B1 VL
notes: phage clone supernatant
B21: 1G8-1G3 scFv (scFv, V domains shown)
VH: B1 VH with Y27F, S31T, Y52S, P53G, G54I, W56A, S57G, P58T, D59N
VL: B1 VL
notes: phage clone supernatant
B22: 1G8-1C1 scFv (scFv, V domains shown)
VH: B1 VH with N28I, G30S, S31N, Y52S, P53T, S55F, W56A, S57G
VL: B1 VL
notes: phage clone supernatant
B23: 1G8-1C8 scFv (scFv, V domains shown)
VH: B1 VH with Y27F, N28S, Y32S, R50A, Y52S, P53G, G54S, W56D, D59R
VL: B1 VL
notes: phage clone supernatant
B24: 1G8-1C10 scFv (scFv, V domains shown)
VH: B1 VH with Y27F, G30S, S31D, A33S, Y52K, P53A, G54S, W56G, S57G, P58S
VL: B1 VL
notes: phage clone supernatant
B25: 1G8-2A4 scFv (scFv, V domains shown)
VH: B1 VH with Y27D, N28T, G30S, Y32N, P53G, S57D, P58T
VL: B1 VL
notes: phage clone supernatant
B26: 1G8-2A1 scFv (scFv, V domains shown)
VH: B1 VH with N28S, G30D, S31G, Y32F, Y52S, P53G, G54H, S55D, P58S, D59S
VL: B1 VL
notes: phage clone supernatant

Target: T1, human Nectin-4 extracellular antigen hNectin-4-His (human, UniProt Q96NY8 32-349)
T1 construct: C-terminal 8xHis tag included
T1 sequence: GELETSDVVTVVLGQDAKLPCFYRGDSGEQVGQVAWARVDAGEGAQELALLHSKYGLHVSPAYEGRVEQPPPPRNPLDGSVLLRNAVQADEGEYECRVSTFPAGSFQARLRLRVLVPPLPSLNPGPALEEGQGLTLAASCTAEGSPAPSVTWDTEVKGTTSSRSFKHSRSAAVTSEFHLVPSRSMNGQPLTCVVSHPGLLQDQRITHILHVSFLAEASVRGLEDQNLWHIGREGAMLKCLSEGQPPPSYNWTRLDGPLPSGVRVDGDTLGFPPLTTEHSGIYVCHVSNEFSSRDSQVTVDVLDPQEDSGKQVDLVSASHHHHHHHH
Experiment: ELISA, phage scFv supernatant 1:50
Experimental: The supernatants were diluted 50-fold, and the binding OD values of the diluted supernatants to hNectin-4-His were measured by ELISA. The samples were serially 3-fold diluted, and the EC₅₀ titer for the binding of the supernatants to the antigen was measured by ELISA. […] The light chain variable region sequence is set forth in SEQ ID NO: 25. The OD value is the measurement of ELISA, and the EC₅₀ value denotes the EC₅₀ value of the binding activity titer of the supernatant to the antigen.

Row | Binder | OD value [OD]
1 | B1 | 1.62
2 | B2 | 1.57
3 | B3 | 1.48
4 | B4 | 1.55
5 | B5 | 1.48
6 | B6 | 1.6
7 | B7 | 1.61
8 | B8 | 1.58
9 | B9 | 1.59
10 | B10 | 1.55
11 | B11 | 1.6
12 | B12 | 1.61
13 | B13 | 1.56
14 | B14 | 1.58
15 | B15 | 1.6
16 | B16 | 1.49
17 | B17 | 1.54
18 | B18 | 1.55
19 | B19 | 1.58
20 | B20 | 1.4
21 | B21 | 1.58
22 | B22 | 1.5
23 | B23 | 1.59
24 | B24 | 1.61
25 | B25 | 1.54
26 | B26 | 1.6
